From patent US6984774 come the findings set out here.

Where only a bound is given, the exact number is not on record here.

For this data set, the system named is Ac transposase (Zea mays). The data set can be described thus: cell_activity. The note with it: in Arabidopsis; GUS recombination stimulated over no-Ac control; Ds excision footprint confirmed by PCR and sequencing; binding not measured directly.

With Ds element in GU-Ds-US construct, the activity was greater than 1000 fold.
